The target of experiment [1] is N-terminally His6-tagged Gαo E246K mutant (rat) (UniProt P59215).
Experiment [2] addresses N-terminally His6-tagged wild-type Gαo (rat) (UniProt P59215).

For the substance RGS16 domain (domain or fragment), the kGAP (single-turnover GTPase assay, 400 nM Gα, 20 nM RGS16) in experiment [1] came to 1.7 min⁻¹; in experiment [2], 1.6 min⁻¹.
